Experimental data published in paper PMC10218266, “Unveiling CD59-Antibody Interactions to Design Paratope-Mimicking Peptides for Complement Modulation” (International Journal of Molecular Sciences, 2023).
Starred links: 1 amine or outer side, 2 acyl side, 3 side chain; linkers in the order of their positions; H or OH if unused. Positions of bridges follow the written chain, without caps; N, C: chain ends. Residues, ends and D or L forms follow the SMILES beside them. TBMB = c1c(C[*:1])cc(C[*:3])cc1C[*:2]

Key:
recombinant human CD59 [1] = target: T1, recombinant human CD59 (Homo sapiens, UniProt P13987); assay: Surface Plasmon Resonance (SPR) direct binding assay; conditions: for kon: CD59 on CM5 chip, HBS-EP, 25 °C, 1:1 fit, average over tested peptide concentrations, read-out: ka
T1 construct: purchased Abcam ab134887
T1 sequence (P13987 26-128): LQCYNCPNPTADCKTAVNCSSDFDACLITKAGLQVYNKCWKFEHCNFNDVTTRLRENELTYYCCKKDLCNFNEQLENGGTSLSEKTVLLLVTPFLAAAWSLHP
Method: (§1) The bicyclic peptides were tested for their ability to bind to recombinant human CD59. Direct binding assays were performed both using Surface Plasmon Resonance (SPR) and Biolayer Interferometry (BLI) label-free techniques (Figure 5). In both cases, after immobilisation of the protein on the sensor chips, the peptides were tested at increasing concentrations between 2.5 µM and 50 µM. […] Binding experiments were next repeated using BLI to confirm the recognition.
Assessment of binding kinetics and affinity between pm59 peptides and CD59 was performed at 25 °C using standard protocols on a BIACORE 3000 system (GE Healthcare, Little Chalfont, UK) with a research-grade CM5 (Carboxymethyl dextran) sensor chip and using commercial CD59 (ab134887) obtained from Abcam (Cambridge, UK). After chip preparation according to the manufacturer’s guidelines and surface activation, CD59 was immobilised onto the chip at a density of 4000 RU (0.5 mg/mL in 10 μL/min) on a NaAc buffer at pH 4.5. Bovine serum albumin (BSA) was immobilised on flow cell 2 to serve as reference. All surfaces were blocked with a 7′ injection of 1 M ethanolamine at pH 8.5.
The bicyclic acetylated CD59-targeting peptides were diluted in HBS-EP buffer (GE Healthcare, Little Chalfont, UK) and injected over the flow cells at a flow rate of 30 μL/min and concentrations ranging from 1 μM to 30 μM. Association of the complexes was allowed for 120 s and dissociation for 240 s. Regeneration of the surfaces was obtained by the sequential injection of 5 mM NaOH pulses (10 μL/min) until the established baseline was reached. Kinetics and binding data were fitted to a 1:1 stoichiometric interaction model using the global data analysis of the BIAevaluation software (GE Healthcare, Little Chalfont, UK) and Graphpad (Graphpad software, San Diego, CA, USA).

recombinant human CD59 [2] = target: T1, recombinant human CD59; assay: Biolayer Interferometry (BLI) direct binding assay; conditions: for kon / koff: CD59 on AR2G sensor, Kinetic Buffer, 1:1 fit; for kon: read-out: ka; for koff: read-out: kdis
Method: as §1
The BLI technique was used to assess the binding of the peptides towards the human recombinant CD59 protein (Abcam code ab134887). The protein was efficiently immobilized at 15 μg/mL in 10 mM NaAc at pH 4.5 on a AR2G sensor chip (Sartorius) according to the manufacturer’s instructions. An unmodified sensor chip was used as blank. The peptides were tested at increasing concentrations from 5 µM to 50 µM dissolved in Kinetic Buffer (PBS containing 0.02% Tween20, 0.1% BSA, 0.05% sodium azide) and using the same running buffer. All analyses were carried out at 25 °C; 10 mM NaOH was used to regenerate the chip surface. All mathematical manipulations were performed using the Octet Analysis Studio 12.2 software from Sartorius. Data were fitted assuming a 1:1 Langmuir binding model determining the KDs by the global analysis mode. Binding curves were exported and charted using GraphPad software, vers. 5.

[3] = target: T2, human recombinant CD59 protein (human, UniProt P13987 26-99); assay: BLI; CD59 immobilised at 15 μg/mL in 10 mM NaAc pH 4.5 on an AR2G sensor; peptides 5 µM to 50 µM in Kinetic Buffer (PBS, 0.02% Tween20, 0.1% BSA, 0.05% sodium azide), 25 °C; 1:1 Langmuir model; conditions: both partners purified
T2 construct: CD59, human, recombinant commercial product (Abcam ab134887); also called commercial CD59 (ab134887); source: bought: Abcam (ab134887), recombinant
T2 sequence: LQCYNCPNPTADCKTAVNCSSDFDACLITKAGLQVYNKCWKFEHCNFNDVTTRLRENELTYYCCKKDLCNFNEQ

[4] = target: T2, human recombinant CD59 protein; assay: SPR; CD59 immobilised on a CM5 chip (4000 RU, NaAc buffer pH 4.5), BSA on the reference flow cell; peptides in HBS-EP injected at 30 μL/min, 25 °C, BIACORE 3000; 1:1 Langmuir model; conditions: both partners purified
[5] = 25 °C, average over tested peptide concentrations

Ac-CNNKYLACQQYYSTPC-NH2 (also: bicyclic or more (positions not given here)) [pm59ln, long bicyclic paratope-mimicking peptide of MB59 VL CDR1/CDR3, three cysteines linked by TBMB, N-acetylated, C-amidated]
binding to CD59 (in words) (recombinant human CD59 [1]; immobilised CD59, peptide at increasing concentrations between 2.5 µM and 50 µM (Figure 5E)): No significant binding
binding to CD59 (in words) (recombinant human CD59 [2]; immobilised CD59, peptide at increasing concentrations between 2.5 µM and 50 µM (Figure 5F)): No significant binding

CC(=O)N[C@H]1CSCc2cc3cc(c2)CSC[C@H](NC(=O)[C@H](CC(C)C)NC(=O)[C@H](Cc2ccc(O)cc2)NC(=O)[C@H](CCCCN)NC(=O)[C@H](CC(N)=O)NC1=O)C(=O)N[C@@H](CCC(N)=O)C(=O)N[C@@H](Cc1ccc(O)cc1)C(=O)N[C@@H](Cc1ccc(O)cc1)C(=O)N[C@@H](CO)C(=O)N[C@@H]([C@@H](C)O)C(=O)N[C@H](C(N)=O)CSC3 [pm59sh] (Ac-CNKYLCQYYSTC-NH2; linker 1-6-12 via TBMB)
kon (recombinant human CD59 [1]): 2930 M⁻¹ s⁻¹
kon (recombinant human CD59 [2]; [5]): 463 M⁻¹ s⁻¹
koff (recombinant human CD59 [2]; [5]): 0.00268 s⁻¹

CC(=O)N[C@H]1CSCc2cc3cc(c2)CSC[C@H](NC(=O)[C@H](CC(C)C)NC(=O)[C@H](Cc2ccc(O)cc2)NC(=O)[C@H](CCCCN)NC(=O)[C@H](CC(N)=O)NC(=O)[C@H](CC(N)=O)NC1=O)C(=O)N[C@@H](CCC(N)=O)C(=O)N[C@@H](Cc1ccc(O)cc1)C(=O)N[C@@H](Cc1ccc(O)cc1)C(=O)N[C@@H](CO)C(=O)N[C@@H]([C@@H](C)O)C(=O)N1CCC[C@H]1C(=O)N[C@H](C(N)=O)CSC3 [pm59md] (Ac-CNNKYLCQYYSTPC-NH2; linker 1-7-14 via TBMB)
kon (recombinant human CD59 [1]): 2930 M⁻¹ s⁻¹
kon (recombinant human CD59 [2]; [5]): 919 M⁻¹ s⁻¹
koff (recombinant human CD59 [2]; [5]): 0.00333 s⁻¹
Kd (recombinant human CD59 [2]; OCTET R8, CD59 immobilised on AR2G sensor, Kinetic Buffer (PBS, 0.02% Tween20, 0.1% BSA, 0.05% sodium azide), 25 °C, 1:1 Langmuir fit, average over tested peptide concentrations): 4.39 µM

B1: pm59md, bicyclic paratope-mimicking peptide (medium version) (peptide)
peptide: Ac-CNNKYLCQYYSTPC-NH2
modifications: linker 1-7-14 via TBMB
SMILES: CC(=O)N[C@H]1CSCc2cc3cc(c2)CSC[C@H](NC(=O)[C@H](CC(C)C)NC(=O)[C@H](Cc2ccc(O)cc2)NC(=O)[C@H](CCCCN)NC(=O)[C@H](CC(N)=O)NC(=O)[C@H](CC(N)=O)NC1=O)C(=O)N[C@@H](CCC(N)=O)C(=O)N[C@@H](Cc1ccc(O)cc1)C(=O)N[C@@H](Cc1ccc(O)cc1)C(=O)N[C@@H](CO)C(=O)N[C@@H]([C@@H](C)O)C(=O)N1CCC[C@H]1C(=O)N[C@H](C(N)=O)CSC3
notes: designed from key residues of the CDR1 and CDR3 loops of the VL chain of the scFv MB59, flanking residues changed to cysteines; also called medium version of pm59; source: synthetic peptide (Fmoc solid phase, bi-cyclised with TBMB, RP-HPLC purified)
KD at 10 μM [3]: 1.23 µM
KD at 20 μM [3]: 4.12 µM
KD at 25 μM [3]: 6.52 µM
KD at 30 μM [3]: 6.09 µM
KD at 40 μM [3]: 8.38 µM
ka at 5 μM [3]: 963 M⁻¹ s⁻¹
ka at 10 μM [3]: 1560 M⁻¹ s⁻¹
ka at 20 μM [3]: 889 M⁻¹ s⁻¹
ka at 25 μM [3]: 783 M⁻¹ s⁻¹
ka at 30 μM [3]: 750 M⁻¹ s⁻¹
ka at 40 μM [3]: 564 M⁻¹ s⁻¹
KD at 2.5 μM [4]: 1.38 µM
KD at 5 μM [4]: 0.902 µM
KD at 10 μM [4]: 1.09 µM
KD at 20 μM [4]: 3.1 µM
KD at 30 μM [4]: 4.39 µM
KD at 40 μM [4]: 3.88 µM
KD at 50 μM [4]: 4.9 µM
Kd [4]: 3.13 µM
ka at 2.5 μM [4]: 5960 M⁻¹ s⁻¹
ka at 5 μM [4]: 7080 M⁻¹ s⁻¹
ka at 10 μM [4]: 4830 M⁻¹ s⁻¹
ka at 20 μM [4]: 2290 M⁻¹ s⁻¹
ka at 30 μM [4]: 1270 M⁻¹ s⁻¹
ka at 40 μM [4]: 1320 M⁻¹ s⁻¹
ka at 50 μM [4]: 980 M⁻¹ s⁻¹
kd at 2.5 μM [4]: 0.00814 s⁻¹
kd at 5 μM [4]: 0.00638 s⁻¹
kd at 10 μM [4]: 0.00526 s⁻¹
kd at 20 μM [4]: 0.0071 s⁻¹
kd at 30 μM [4]: 0.00627 s⁻¹
kd at 40 μM [4]: 0.00511 s⁻¹
kd at 50 μM [4]: 0.0048 s⁻¹
koff [4]: 0.00582 s⁻¹

B2: pm59sh, bicyclic paratope-mimicking peptide (short version) (peptide)
peptide: Ac-CNKYLCQYYSTC-NH2
modifications: linker 1-6-12 via TBMB
SMILES: CC(=O)N[C@H]1CSCc2cc3cc(c2)CSC[C@H](NC(=O)[C@H](CC(C)C)NC(=O)[C@H](Cc2ccc(O)cc2)NC(=O)[C@H](CCCCN)NC(=O)[C@H](CC(N)=O)NC1=O)C(=O)N[C@@H](CCC(N)=O)C(=O)N[C@@H](Cc1ccc(O)cc1)C(=O)N[C@@H](Cc1ccc(O)cc1)C(=O)N[C@@H](CO)C(=O)N[C@@H]([C@@H](C)O)C(=O)N[C@H](C(N)=O)CSC3
notes: designed from key residues of the CDR1 and CDR3 loops of the VL chain of the scFv MB59, flanking residues changed to cysteines; also called short version of pm59; source: synthetic peptide (Fmoc solid phase, bi-cyclised with TBMB, RP-HPLC purified)
KD at 5 μM [3]: 0.865 µM
KD at 10 μM [3]: 4.98 µM
KD at 20 μM [3]: 9.92 µM
KD at 30 μM [3]: 8.45 µM
KD at 40 μM [3]: 15 µM
KD at 50 μM [3]: 15.9 µM
Kd [3]: 9.18 µM
ka at 5 μM [3]: 1130 M⁻¹ s⁻¹
ka at 10 μM [3]: 524 M⁻¹ s⁻¹
ka at 20 μM [3]: 294 M⁻¹ s⁻¹
ka at 30 μM [3]: 451 M⁻¹ s⁻¹
ka at 40 μM [3]: 197 M⁻¹ s⁻¹
ka at 50 μM [3]: 178 M⁻¹ s⁻¹
KD at 5 μM [4]: 0.469 µM
KD at 7.5 μM [4]: 1.24 µM
KD at 10 μM [4]: 1.64 µM
KD at 15 μM [4]: 2.39 µM
KD at 20 μM [4]: 2.61 µM
KD at 25 μM [4]: 4.13 µM
KD at 30 μM [4]: 4.46 µM
Kd [4]: 2.42 µM
ka at 5 μM [4]: 7260 M⁻¹ s⁻¹
ka at 7.5 μM [4]: 4210 M⁻¹ s⁻¹
ka at 10 μM [4]: 3010 M⁻¹ s⁻¹
ka at 15 μM [4]: 2050 M⁻¹ s⁻¹
ka at 20 μM [4]: 1560 M⁻¹ s⁻¹
ka at 25 μM [4]: 1160 M⁻¹ s⁻¹
ka at 30 μM [4]: 1230 M⁻¹ s⁻¹
kd at 5 μM [4]: 0.0034 s⁻¹
kd at 7.5 μM [4]: 0.00523 s⁻¹
kd at 10 μM [4]: 0.00493 s⁻¹
kd at 15 μM [4]: 0.0049 s⁻¹
kd at 20 μM [4]: 0.00408 s⁻¹
kd at 25 μM [4]: 0.00481 s⁻¹
kd at 30 μM [4]: 0.00548 s⁻¹
koff [4]: 0.00469 s⁻¹
